Reference: patent US20030119038A1, “NARC1, novel subtilase-like homologs” (priority 1999, published 2003)
“Also recorded” adds a separate entry of the source. Like-named read-outs stand apart in the source and are kept apart here.

Tests used:
NARC1 transfectants = system: NARC1 transfectants
Procedure: Following transient expression of this construct in CGNs, the percentage of GFP positive and GFP negative cells undergoing apoptosis was determined by Laser-Scanning Cytometry.
Following transient expression of the wild-type and point-mutant NARC1 constructs in CGNs, the percentage of GFP-positive cells undergoing apoptosis was determined by Laser-Scanning Cytometry.
The serine protease inhibitors Aminoethyl-benzene sulfonyl fluoride, an irreversible inhibitor (AEBSF), Aprotinin, a reversible inhibitor, and N-Tosyl-lysine-chloromethylketone (TLCK, an inhibitor known to covalently bind to serine proteases) were investigated to see if any of these reagents can rescue the cell death effects of wild-type NARC1. Caspase 9 transfection was included to test for specificity of any rescue effects.
CGNs were transfected with each of the C-terminal truncation mutants described above. Following transient expression of these constructs, the percentage of GFP positive cells undergoing apoptosis was determined by Laser-Scanning Cytometry.

NARC1 = assay: Autoprocessing of NARC1 transiently expressed in COS-7 cells, Western blotting; type: cell-based, rat; conditions: C-terminal myc/His fusion transiently expressed in COS-7 cells; 60 kD processing product on Western blot
Procedure: The wild-type NARC1-myc/His clone was transiently expressed in COS-7 cells. The cells were then harvested, lysed, and the protein extracted. Polyacrylamide gel electrophoresis was then carried out on the protein extracts, followed by Western blotting. The resulting membranes were probed using both anti-myc- and NARC1-specific antibodies. Routine techniques and protocols were followed. See, e.g., Ausubel et al.(1998), supra.
This cleavage event maps to approximately the junction between the pro-domain and the enzymatic domain.
Autoprocessing of NARC1 was investigated as follows. COS-7 cells were co-transfected with the following EGFP and myc plasmids: (A) wild-type NARC1-myc and wild-type NARC1-EGFP; (B) S385A NARC1-myc and S385A NARC1-EGFP; and (C) wild-type NARC1-myc and S385A NARC1-myc. The cells were then harvested, lysed, and the protein extracted. Polyacrylamide gel electrophoresis was then carried out on the protein extracts, followed by Western blotting. The resulting membranes were sequentially probed using first the anti-myc and then the anti-EGFP monoclonal antibodies (Abs). Thus, the experiment allowed sequential detection of the separate NARC1 products encoded from the two co-transfected plasmids.
As indicated above, a series of C-terminal truncation mutants were generated. The truncation NARC1-myc/His clones were transiently expressed in COS-7 cells. The cells were then harvested, lysed, the protein extracted, and polyacrylamide gel electrophoresis carried out on the protein extracts. Western analysis was then carried out using both anti-myc and NARC1-specific antibodies.

[1] = system: cerebellar granule neurons (CGNs); assay: Apoptosis after transient expression of NARC1-EGFP constructs in CGNs, Laser-Scanning Cytometry; type: cell-based, rat; conditions: for Resulting Cell Death Activity: EGFP construct transiently expressed in CGNs, percentage of GFP-positive cells undergoing apoptosis; for BAF sensitivity of induced cell death: CGNs, 100 μM BAF
Text: Cerebellar granule neurons (CGNs) were transfected with a NARC1-enhanced green fluorescent protein (EGFP) expression construct (with the EGFP sequences located at the carboxy terminus of the fusion protein). Unless otherwise indicated, the construct utilized in the following experiments contained 2073 base pairs of the rat NARC1 transcript set forth in FIG. 5. Specifically, this corresponds to nucleotides 205-2277 and amino acid residues 56-746 of SEQ ID NO:4 and SEQ ID NO:3, respectively. The polypeptide sequence encoded by the NARC1 insert utilized herein has been set forth as SEQ ID NO:9 herein. The nucleotide sequence of this insert has been set forth as SEQ ID NO:10.
To investigate NARC1-mediated neuronal cell death, transient expression of the EGFP clones was carried out in cerebellar granule neurons (CGNs). These studies are set forth in detail as follows.

Ntera2 cells = assay: NARC1-EGFP transfection of Ntera2 cells, nuclear area condensation; type: cell-based, human; conditions: C-terminal EGFP constructs, 24 hours
Procedure: Specifically, Ntera2 cells were transfected with C-terminal EGFP constructs of wild-type NARC1, each of the point-mutant NARC1s, and caspase 9. At 24 hours, nuclear area condensation was assessed for the entire Ntera2 cell population and compared to nuclear area condensation for the transfected cell population.

| Molecule | Rescue of cell death in NARC1 transfectants (NARC1 transfectants; 24-hour exposure) | Rescue of cell death in NARC1 transfectants (NARC1 transfectants; 48-hour exposure) | Autoprocessing Activity (NARC1) | Resulting Cell Death Activity [1] | BAF sensitivity of induced cell death [1] | Sensitivity of cells to expression (nuclear area condensation) (Ntera2 cells) |
| --- | --- | --- | --- | --- | --- | --- |
| Aprotinin | some suggestion of rescue | increased effectiveness |  |  |  |  |
| N-Tosyl-lysine-chloromethylketone [TLCK] | some suggestion of rescue | increased effectiveness |  |  |  |  |
| Deletion of residues Q218-A392, inclusive: NARC1 subtilase deletion, small; removes much of the subtilase domain including active site residues (protein, mutant of rat sequence deletion mutant removes Gln218-Ala392, inclusive, of SEQ ID NO9) MGIRCSTWLRWPLSPQLLLLLLLCPTGSRAQDEDGDYEELMLALPSQEDSLVDEASHVATATFRRCSKEAWRLPGTYVVVLMEETQRLQVEQTAHRLQTWAARRGYVIKVLHVFYDLFPGFLVKMSSDLLGLALKLPHVEYIEEDSLVFAQSIPWNLERIIPAWQQTEEDSSPDGSSQVEVYLLDTSIQSGHREIEGRVTITDFNSVPEEDGTRFHRGIVAMMLNRDPALTLAELRQRLILFSTKDVINMAWFPEDQRVLTPNRVATLPPSTQETGGQLLCRTVWSAHSGPTRTATATARCAPEEELLSCSSFSRSGRRRGDRIEAIGGQQVCKALNAFGGEGVYAVARCCLLPRVNCSIHNTPAARAGPQTPVHCHQKDHVLTGCSFHWEVENLRAQQQPLLRSRHQPGQCVGHQEASVHASCCHAPGLECKIKEHGIAGPAEQVTVACEAGWTLTGCNVLPGASLPLGAYSVDNVCVARIRDAGRADRTSEEATVAAAICCRSRPSAKASWVHQ |  |  | Absence of processing. | Reduced activity. |  |  |
| C-terminal truncation Q453: NARC1 terminating at residue Q453; most of the CRR removed (protein, mutant of rat sequence truncated sequence ends at amino acid Gln453) MGIRCSTWLRWPLSPQLLLLLLLCPTGSRAQDEDGDYEELMLALPSQEDSLVDEASHVATATFRRCSKEAWRLPGTYVVVLMEETQRLQVEQTAHRLQTWAARRGYVIKVLHVFYDLFPGFLVKMSSDLLGLALKLPHVEYIEEDSLVFAQSIPWNLERIIPAWQQTEEDSSPDGSSQVEVYLLDTSIQSGHREIEGRVTITDFNSVPEEDGTRFHRQASKCDSHGTHLAGVVSGRDAGVAKGTSLHSLRVLNCQGKGTVSGTLIGLEFIRKSQLIQPSGPLVVLLPLAGGYSRILNTACQRLARTGVVLVAAAGNFRDDACLYSPASAPEVITVGATNAQDQPVTLGTLGTNFGRCVDLFAPGKDIIGASSDCSTCYMSQSGTSQAAAHVAGIVAMMLNRDPALTLAELRQRLILFSTKDVINMAWFPEDQRVLTPNRVATLPPSTQETGGQ |  |  | Normal processing. | Induces wild type | insensitive. |  |
| C-terminal truncation M425: NARC1 terminating at residue M425; all of the cysteine-rich region removed (protein, mutant of rat sequence truncated sequence ends at amino acid Met 425, NARC1 terminating at residue M425; all of the cysteine-rich region removed) MGIRCSTWLRWPLSPQLLLLLLLCPTGSRAQDEDGDYEELMLALPSQEDSLVDEASHVATATFRRCSKEAWRLPGTYVVVLMEETQRLQVEQTAHRLQTWAARRGYVIKVLHVFYDLFPGFLVKMSSDLLGLALKLPHVEYIEEDSLVFAQSIPWNLERIIPAWQQTEEDSSPDGSSQVEVYLLDTSIQSGHREIEGRVTITDFNSVPEEDGTRFHRQASKCDSHGTHLAGVVSGRDAGVAKGTSLHSLRVLNCQGKGTVSGTLIGLEFIRKSQLIQPSGPLVVLLPLAGGYSRILNTACQRLARTGVVLVAAAGNFRDDACLYSPASAPEVITVGATNAQDQPVTLGTLGTNFGRCVDLFAPGKDIIGASSDCSTCYMSQSGTSQAAAHVAGIVAMMLNRDPALTLAELRQRLILFSTKDVINM |  |  | Normal processing. | Induces wild type | insensitive. |  |
| Deletion of residues L147-M425, inclusive: NARC1 subtilase deletion, large; removes entire subtilase domain (protein, mutant of rat sequence deletion mutant removes amino acids Leu147-Met425, inclusive, of SEQ ID NO9, NARC1 subtilase deletion, large; removes entire subtilase domain) MGIRCSTWLRWPLSPQLLLLLLLCPTGSRAQDEDGDYEELMLALPSQEDSLVDEASHVATATFRRCSKEAWRLPGTYVVVLMEETQRLQVEQTAHRLQTWAARRGYVIKVLHVFYDLFPGFLVKMSSDLLGLALKLPHVEYIEEDSAWFPEDQRVLTPNRVATLPPSTQETGGQLLCRTVWSAHSGPTRTATATARCAPEEELLSCSSFSRSGRRRGDRIEAIGGQQVCKALNAFGGEGVYAVARCCLLPRVNCSIHNTPAARAGPQTPVHCHQKDHVLTGCSFHWEVENLRAQQQPLLRSRHQPGQCVGHQEASVHASCCHAPGLECKIKEHGIAGPAEQVTVACEAGWTLTGCNVLPGASLPLGAYSVDNVCVARIRDAGRADRTSEEATVAAAICCRSRPSAKASWVHQ |  |  | Absence of processing. | Reduced activity. |  |  |
| S385A: Full-length NARC1 point mutant; mutation of the active site serine (protein, mutant of rat sequence mutating amino acid Ser385Ala of SEQ ID NO9) MGIRCSTWLRWPLSPQLLLLLLLCPTGSRAQDEDGDYEELMLALPSQEDSLVDEASHVATATFRRCSKEAWRLPGTYVVVLMEETQRLQVEQTAHRLQTWAARRGYVIKVLHVFYDLFPGFLVKMSSDLLGLALKLPHVEYIEEDSLVFAQSIPWNLERIIPAWQQTEEDSSPDGSSQVEVYLLDTSIQSGHREIEGRVTITDFNSVPEEDGTRFHRQASKCDSHGTHLAGVVSGRDAGVAKGTSLHSLRVLNCQGKGTVSGTLIGLEFIRKSQLIQPSGPLVVLLPLAGGYSRILNTACQRLARTGVVLVAAAGNFRDDACLYSPASAPEVITVGATNAQDQPVTLGTLGTNFGRCVDLFAPGKDIIGASSDCSTCYMSQSGTAQAAAHVAGIVAMMLNRDPALTLAELRQRLILFSTKDVINMAWFPEDQRVLTPNRVATLPPSTQETGGQLLCRTVWSAHSGPTRTATATARCAPEEELLSCSSFSRSGRRRGDRIEAIGGQQVCKALNAFGGEGVYAVARCCLLPRVNCSIHNTPAARAGPQTPVHCHQKDHVLTGCSFHWEVENLRAQQQPLLRSRHQPGQCVGHQEASVHASCCHAPGLECKIKEHGIAGPAEQVTVACEAGWTLTGCNVLPGASLPLGAYSVDNVCVARIRDAGRADRTSEEATVAAAICCRSRPSAKASWVHQ |  |  | absence of autoprocessing; also recorded: eliminate NARC1 autoprocessing; also recorded: Absence of processing | reduced, but still substantial, pro-apoptotic effect; also recorded: somewhat reduce the pro-apoptotic effect; also recorded: Reduced activity |  | equally sensitive |
